This is an account of results in patent US20140308283A1 (TORAY INDUSTRIES, published 2014).

Test [1] has as its target T1, CAPRIN-1 protein expressed on the cell membrane surface of human cancer cell lines (human, UniProt Q14444 2-709).
T1 construct: whole, on cells; also called human CAPRIN-1; Cytoplasmic- and proliferation-associated protein 1
T1 sequence (looked up): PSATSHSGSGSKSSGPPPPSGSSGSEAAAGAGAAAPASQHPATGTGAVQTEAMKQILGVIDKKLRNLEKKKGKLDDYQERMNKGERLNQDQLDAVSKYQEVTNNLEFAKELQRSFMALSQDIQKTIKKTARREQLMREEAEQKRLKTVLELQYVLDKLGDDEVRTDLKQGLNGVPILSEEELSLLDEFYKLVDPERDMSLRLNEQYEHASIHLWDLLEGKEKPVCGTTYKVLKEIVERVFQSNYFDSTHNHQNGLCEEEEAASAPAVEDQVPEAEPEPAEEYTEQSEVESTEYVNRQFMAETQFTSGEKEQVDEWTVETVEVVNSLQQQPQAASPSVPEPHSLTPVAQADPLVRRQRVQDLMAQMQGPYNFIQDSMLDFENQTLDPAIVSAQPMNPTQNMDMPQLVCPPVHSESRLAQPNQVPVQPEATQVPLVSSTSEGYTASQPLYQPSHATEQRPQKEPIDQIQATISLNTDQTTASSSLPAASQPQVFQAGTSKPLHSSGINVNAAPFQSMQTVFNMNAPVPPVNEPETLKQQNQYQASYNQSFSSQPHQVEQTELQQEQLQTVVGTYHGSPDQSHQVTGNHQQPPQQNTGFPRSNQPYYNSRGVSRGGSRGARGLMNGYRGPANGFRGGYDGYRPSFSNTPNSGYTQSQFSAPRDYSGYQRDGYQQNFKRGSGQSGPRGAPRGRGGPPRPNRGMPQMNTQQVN
The test can be described thus: flow cytometry on Capan-2, MIAPaCa-2, PANC-1 and BxPC-3 cells, vs isotype control. How it is done: Next, four pancreatic cancer cell lines (Capan-2, MIAPaCa-2, PANC-1, and BxPC-3) confirmed to have CAPRIN-1 gene expression were examined for their expression of CAPRIN-1 protein on the cell surface. 10⁶ cells of each cell line were centrifuged in each 1.5-ml microcentrifuge tube. The cancer cell surface-reactive anti-CAPRIN-1 mouse monoclonal antibodies #1 to #22 prepared in Example 4 and the culture supernatant (100 μl) containing the anti-CAPRIN-1 mouse-chicken chimeric antibody #1, #2, or #3 prepared in the preceding paragraph (2) were separately added to the tubes and left standing for 1 hour on ice. After washing with PBS, the cells were suspended in FITC-labeled goat anti-mouse IgG antibodies (manufactured by Invitrogen Corp.) diluted 500-fold with PBS containing 0.1% FBS and left standing for 1 hour on ice. After washing with PBS, the fluorescence intensity was measured using FACSCalibur (Becton, Dickinson and Company). On the other hand, the same operation as above was performed using isotype control antibodies, instead of the anti-CAPRIN-1 mouse monoclonal antibodies #1 to #22 and the culture supernatant containing the mouse-chicken chimeric antibody #1, #2, or #3, to prepare a control. As a result, all the cells supplemented with any of the monoclonal antibodies #1 to #22 and the mouse-chicken chimeric antibodies #1, #2, and #3 had fluorescence intensity at least 20% stronger than that of the control. […] The above rate of enhancement in fluorescence intensity was indicated by the rate of increase in mean fluorescence intensity (MFI) in each cell line and calculated according to the following expression: […]
(A flow cytometer gives signals particle by particle.)

Test [2] concerns the target T1, CAPRIN-1 protein expressed on the cell …. The test can be described thus: cell-based or functional assay.
Test [3] deals with T2, polypeptide of SEQ ID NO: 266 (human).
T2 peptide: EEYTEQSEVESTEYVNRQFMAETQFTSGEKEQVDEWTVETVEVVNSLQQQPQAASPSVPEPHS
Nature of the test: ELISA on immobilised synthetic CAPRIN-1 peptides. How it is done:
(§1) Then, the solution in each well was discarded, and each well was washed six times with PBST.
(§2) A TMB substrate solution (manufactured by Thermo Fisher Scientific Inc.) was added thereto at a concentration of 100 μl/well and left standing for 15 to 30 minutes to cause color reaction. After the color development, the reaction was terminated by the addition of 1 N sulfuric acid at a concentration of 100 μl/well. The absorbance was measured at 450 nm and 595 nm using an absorption spectrometer. As a result, a polypeptide of SEQ ID NO: 266 was identified as a partial CAPRIN-1 sequence recognized by all of the anti-CAPRIN-1 antibodies human-chicken chimeric monoclonal antibody #1 and anti-CAPRIN-1 monoclonal antibodies #1 to #5. In the polypeptide of SEQ ID NO: 266, a peptide of SEQ ID NO: 267 was identified as a partial sequence recognized by the human-chicken chimeric monoclonal antibody #1 and the mouse monoclonal antibodies #3 and #4. In the polypeptide of SEQ ID NO: 266, a peptide of SEQ ID NO: 268 was identified as a partial sequence recognized by the mouse monoclonal antibodies #1, #2, and #5. […] Also, a polypeptide comprising the amino acid sequence of SEQ ID NO: 270 was identified as a partial CAPRIN-1 sequence recognized by all of the anti-CAPRIN-1 monoclonal antibodies #6, #7, and #8. […] In addition, a polypeptide comprising the amino acid sequence of SEQ ID NO: 272 was identified as a partial CAPRIN-1 sequence recognized by all of the anti-CAPRIN-1 monoclonal antibodies #9, #10, and #11. […] In addition, a polypeptide comprising the amino acid sequence of SEQ ID NO: 269 was identified as a partial CAPRIN-1 sequence recognized by the human-chicken chimeric monoclonal antibody #3.
Background: An ELISA detects its analyte on a solid surface through an enzyme-linked reagent.

In test [4] the target is T3, peptide of SEQ ID NO: 267 (human).
T3 peptide: QQPQAASPSVPE
Nature of the test: ELISA on immobilised synthetic CAPRIN-1 peptides. As to the method:
as §1, §2

For test [5], the target named is T4, polypeptide comprising the amino acid sequence of SEQ ID NO: 269 (human).
T4 peptide: PPVNEPETLKQQNQYQAS
The test can be described thus: ELISA on immobilised synthetic CAPRIN-1 peptides. As to the method: as §1, §2

Test [6] deals with T5, peptide of SEQ ID NO: 268 (human).
T5 peptide: FTSGEKEQVDEW
Nature of the test: ELISA on immobilised synthetic CAPRIN-1 peptides. As to the method:
as §1, §2

B1: mouse monoclonal antibody #4 (antibody, V domains shown)
VH: GAELVRSGASVKMSCKASGYSFTDYNMYWVKQTPGQGLEWIGYIYPGNGGTNYNQKFKGKATLTADTSSSTAYMQISSLTSEDSAVYFCARDYDDGGYAMDYWGQGTTVTVSS
VL: DIQMTQSPASLSASVGETVTITCRASGNIHNYLTWYQQKQGKSPQLLVYNAKTLADGVPSRFSGSGSGTQYSLKINRLQPEDFGSYYCQHFWNIPWTFGGGTKLNSR
notes: Mouse hybridoma antibody; also called anti-CAPRIN-1 mouse monoclonal antibody #4
As for B1, the “rate of increase in mean fluorescence intensity” value in test [1] was no less than 20%. In test [2], the “cytotoxic activity (ADCC) against MIAPaCa-2 and Capan-2” value (from here on “cytotoxic activity (ADCC)”) was no less than 10%. In addition, the binding result in test [3] and in test [4] was “binds” throughout.

B2: human-chicken chimeric antibody #3 (antibody, human IgG1, kappa, V domains shown)
VH: AVTLDESGGGLQTPGGALSLVCKASGFTFSGYDMLWVRQAPGKGLEWVAGIGSTGGGTDYGAAVKGRATISRDNGQSTVRLQLNNLRAEDTATYYCAKVAGGCNSGYCRDSPGSIDAWGHGTEVIVSA
VL: AVTQQPASVSANPGETVKITCSGGGSRNYYGWYQQKSPGSVPVTVIYYDDQRPSNIPSRFSGALSGSTSTLTITGVQADDEAVYFCGSADSNTYEGSFGAGTTLTVLT
notes: also called human-chicken chimeric monoclonal antibody #3
For B2, in test [2], the “cytotoxic activity (ADCC)” value was no less than 10%. In test [5], the binding result is reported as “binds”.

B3: human-chicken chimeric antibody #1 (antibody, human IgG1, kappa, V domains shown)
VH: AVTLDESGGGLQMSRGGLSLVCKASGFDFSSYQMNWIRQAPGKGLEFVAAINKFGNSTGHGAAVKGRVTISRDNGQSTVRLQLNNLRAEDTAIYFCTKHAYGYCGSGTWCAAGEIDAWGHGTEVIVSS
VL: QAASTQPSSVSANPGETVEITCSGGGSYSYGWFQQKSPGSAPVTVIYYNNKRPSDIPSRFSGSKSGSTGTLTITGVQADDEAVYYCGSGDSTDTAVFGAGTTLTVLG
notes: also called human-chicken chimeric monoclonal antibody #1
With B3, the binding result in test [3] and in test [4] was “binds” in each case.

B4: mouse monoclonal antibody #5 (antibody, V domains shown)
VH: DAELVKPGASVKISCKASGYTFTDHSIHWVQQKPEQGLEWIGYISPGNGNIKYNEKFKGKATLTADKSSSTAYMQLNSLTSEDSAVYFCKRSLGRGGPYYFDYWGQGTTVTVSS
VL: DIVLTQAAPSLPVTPGESVSISCRSSKSLLHSNGNTYLYWFLQRPGQSPQLLIYRMSNLASGVPDRFSGSGSGTAFTLRISRVEAEDVGVYYCMQHREYPVTFGSGPN
notes: Mouse hybridoma antibody; also called anti-CAPRIN-1 mouse monoclonal antibody #5
In the case of B4, the “rate of increase in mean fluorescence intensity” value in test [1] was no less than 20%. The “cytotoxic activity (ADCC)” value in test [2] was no less than 10%. Moreover, the binding result in test [3] and in test [6] was “binds” each time.
